Source: the supplement of paper PMC9170038

System: MS2 coat protein
Assay: apparent KD of MS2 coat protein, switch ON state; designed switch direction (-1 OFF switch, 1 ON switch): -1; higher = weaker reporter binding
Details: FMN input: 0 or 200 uM; Eterna round: R93 (includes R88 designs)
Method in brief: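 Designed RNA switches were transcribed on-chip from Illumina sequencing clusters. They were then titrated with SNAP-549-labelled MS2 coat protein (twofold steps, 0.7 or 1.5 nM to 3 µM; 0.8–1.5 h to 10–20 min per step) in 100 mM Tris-HCl pH 7.5, 80 mM KCl, 4 mM MgCl2, without or with constant ligand. Apparent KD is the per-design median of normalised cluster binding-curve fits.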

Sequence	apparent KD of MS2 coat protein
AAAAAACAUGAGGAUCACCCAUGUGAGGAUAUGCAAAACUUAUAUAAAAAGGGAAAAAGUAGAAGGCACAAAAA [LROPPY Exclusion 1 - v09_water mod]	30.4 nM
AACAGUACAGGAUAUACAUGAGGAUCACCCAUGUGAAAAUUAAGUGGCGUACCACAAAGUAGAAGGGUACUGAA [Moding Maslow Revisited (73) 26]	27.9 nM
AAAAAACAUGAGGAUCACCCAUGUGAGGAUAUAGGAAAAAAAAAAAAAAAAAAAAAAACUAGAAGGCACAAAAA [Gess I got it^^]	35.2 nM
AGUCGGCGAGGAUAUACAUGAGGAUCACCCAUGUGAGAGAAAAAGGUGAGUCAGAAAAGUAGAAGGCGCUGACA [JL Lego Mod 5]	166 nM
AUCUUGUCAGGAUAUGACUACAUAAAAAAAAAAAAAUGUAGUCAGAAGGGACAUGAGGAUCACCCAUGUACCAA [HSL_Exclusion 4 64% 2]	29.1 nM
AAAAGGUGAGGAUAUAGGAAAAUAAAAUAAAAUAAAAUAAACUAGAAGGCACAUGAGGAUCACCCAUGUAAUAA [LROPPY Exclusion 4 - v03_deltaG=3.54 break up the As]	25.1 nM
AAAAAGUGAGGAUAUGAAAAUAAAAAAAACAAACAAAUAAAUCAGAAGGCACAUGAGGAUCACCCAUGUAAAAA [JR_Exc004_Sub1202]	36.8 nM
AAGACUACAGGAUAUACAUGAGGAUCACCCAUGUAACUGACGGAUAGAUGACGGAGAAGUAGAAGGGUAGUCAA [Ruby 38]	16.9 nM
AAAAAGGGAGGAUAUACAUGAGGAUCACCCAUGUAUCAGACGAAAAAGAGUCUGAAAAGUAGAAGGCCCAAAAA [65%, Moding Exclusion3-cac2, 6]	15.5 nM
AACCGACAUGAGGAUCACCCAUGUAAGGAUAUGCAUCCUUCGGCCCGGACCAGAGGAAGCAGAAGGUGCAGGGA [Iscegebia]	43.1 nM
AACAGUACAGGAUAUACAUGAGGAUCACCCAUGUGGGAAAAAAGAUCGAGAGAUCCAUGUAGAAGGGUACUGGA [JL In the Red 06]	85.5 nM
AAAAAGCGAGGAUAUACAUGAGGAUCACCCAUGUCAAACGGUAAGACCGCAGGAAACAGUAGAAGGCGCAAAAA [Exclusion3-03]	58.3 nM
AAAAAACAUGAGGAUCACCCAUGUAAGGAUAUGCUCAAGCGAAAAAGCACAAAAAAGAGCAGAAGGUACAAAAA [66%, Wbt, 41]	22.6 nM
CACGGGUUAGGAUAUGCAUGGUGAAAAGACGCGAUCCUUAGACAUGAGGAUCACCCAUGUAGAAGGAACGCGAU [Reonisar]	17.2 nM
ACCGAUCGAGGAUAUACAUGAGGAUCACCCAUGUAACCCAGAAGAAAGGCCUCAGGAUGUAGAAGGCGACGCAA [JR_Exc003_Sub406]	16.3 nM
AAGAAGGAAGGAUAUACAUGAAAGAAAGAAAAGAAAAGAAAACAUGAGGAUCACCCAUGUAGAAGGUCCUAGAA [EteRNA is fun!]	39.6 nM
ACCAAUGGAGGAUAUACAUGAGGAUCACCCAUGUAUAACCUACAUAGGUGAAAAAAAUGUAGAAGGCCAUUGGA [EX3 233: Super Stable 33]	31.2 nM
AAAUGCUGAGGAUAUACAUGAGGAUCACCCAUGUAAAAUAAAUAAUGGAUGUAAACGUGUAGAAGGCAGCAUAA [Exclusion 3.14b (FMN+ favored )]	79.6 nM
GUAAACCUAGGAUAUACAUGAGGAUCACCCAUGUAAAAUUUAAUAAAAAGAAAAUCAAGUAGAAGGAGGUAGAU [JR_Exc003_Sub1224]	25.4 nM
UAAAGACAUGAGGAUCACCCAUGUGAGGAUAUCGGAGAUGACGGAACAUCAAGUUCGGCGAGAAGGCGCAGGAA [JR_Exc001_Sub406]	30.9 nM
AAAAAACAUGAGGAUCACCCAUGUGAGGAUAUGCAAAACCCAUAUAAAAAGGGAAAAAGUAGAAGGCACAAAAA [wbt round 1 mod 10]	24.1 nM
AGAAACGUAGGAUAUACAUGAGGAUCACCCAUGUAAAGAAAGAAGGGAGAAAGAAGAAGUAGAAGGACGAAGAA [JR_Exc003_Sub003]	19.2 nM
AACUGACAUGAGGAUCACCCAUGUCAGGAUAUGACUUGACGAAAAAAAACACGUCAUGUCAGAAGGGACAUGAA [Design 88: Sub-opt YB]	15 nM

Sequence	apparent KD of MS2 coat protein
CUCAAGUAAGGAUAUCCAAGAAAAGAAGAGAAAGAAAAGAAGGAGAAGGUACAUGAGGAUCACCCAUGUAAGAA [EteRNA is fun!]	28.7 nM
AACUCGUCAGGAUAUGCGCACAGAUAAUACGCUACACAAAUGCAGAAGGGACAUGAGGAUCACCCAUGUAAAUA [JR_Exc004_Sub504]	42.6 nM
AAAAAGCGAGGAUAUACAUGAGGAUCACCCAUGUAAAAGGUCGCGGGAGGGAGGGAAGGUAGAAGGCGCAAAAA [Excls3-VI]	15.4 nM
AACAAAUGAGGAUAUACAAACAAAAAAAACAAACAAAACAAACAUGAGGAUCACCCAUGUAGAAGGCAUAAACA [JR_Exc002_Sub901]	24.8 nM
GGAACACAUGAGGAUCACCCAUGUCAGGAUAUGUAGAUAAAAAGAAAAUAAAAUAAAAGCAGAAGGGACAAAAG [May 4]	60.2 nM
AAAAAGGGAGGAUAUACAUGAGGAUCACCCAUGUGAAAGACGAAAAAGAGUCUAAAGGGUAGAAGGCCCAAAAA [65%, Moding Exclusion3-cac2, 10]	51.1 nM
AGUCGGCGAGGAUAUACAUGAGGAUCACCCAUGUGAGAGAAUAAAGUGAGUUAGACAAGUAGAAGGCGCUGACA [JL Lego Mod 10]	40.5 nM
GAAAAGGUAGGAUAUACGAAAAAAAAGGGUAGAAAAAAAACACAUGAGGAUCACCCAUGUAGAAGGACCAAAAG [Mat - Exclusion 2 - Tesla mod - D30]	26.6 nM
AGUCAGAGAGGAUAUACAUAGGAAAAAAAAGUAAGAUCCCUACAUGAGGAUCACCCAUGUAGAAGGCUCUGACA [Ex2 Design 140: Sub-opt 4]	141 nM
AGUCGGCGAGGAUAUACAUGAGGAUCACCCAUGUGAGAGAAAAAAGUGAGCAAGAAAUGUAGAAGGCGCUGACA [JL Lego Mod 3]	156 nM
AAGUCGUUAGGAUAUAUAUGGAUAUACAUUUAUGUAGAACUACAUGAGGAUCACCCAUGUAGAAGGAACGAAUA [AJ 56]	24.3 nM
AGAAAGUGAGGAUAUACGAAACCAGCCUAAAUGGCUGGAAAGUAGAAGGCACAUGAGGAUCACCCAUGUAAAGA [Ex4 sub 1]	32.3 nM
AGCUAGUCAGGAUAUACGAACAUGUCAAAAGACGUGAAGAAACAUGAGGAUCACCCAUGUAGAAGGGACUAGCA [Mat - Exclusion 2 - JL-Eli mod - D50]	16.7 nM
AAAAAACAUGAGGAUCACCCAUGUCAGGAUAUGCUCAGCAAAAAAAAAAAAAAGAACGGUAGAAGGGACAGAAA [Bilbo Confounded 22 - Jieux - Exclusion 1]	56.1 nM
GCUGGCCAAGGAUAUACAUGAGGAUCACCCAUGUGAGAGAAAAAAGUGAGAAAGAAAAGUAGAAGGUGGUUAGG [salish99-ex3-114]	43.9 nM
AUGGUACAUGAGGAUCACCCAUGUCAGGAUAUCGGCUGUGACAUGAAAAAAAUGUUAGUGAGAAGGGACUGUAA [EX1 Malc#18 Mod 4 - Jieux - Exclusion 1]	85.4 nM
GAAGAACAUGAGGAUCACCCAUGUCAGGAUAUGAGCAAGGGAAUAAUAACUUGCGGAAUCAGAAGGGACAAGAA [Ex 1 May 51]	31.7 nM
AUAAACAGAGGAUAUACACAAAAUAAAGAAAAUAAAGAAACACAUGAGGAUCACCCAUGUAGAAGGCUGGAAAA	23.3 nM
GAAAGGGCAGGAUAUGCGGAGAGAGAGAGAGAGAGAGAGAGACAUGAGGAUCACCCAUGUAGAAGGGCCGAAAG [salish99-ex2-08]	36.9 nM
AGGAAACAUGAGGAUCACCCAUGUAAGGAUAUGAACGAAAUAAAAUAAAAAUAAAAGUUCAGAAGGUACAAAAA [Mat - Exclusion 1 - Eli mod - D8]	31.8 nM
CUCUAGUCAGGAUAUCCAAGAAAAGAAGAGAAAGAAAAGAAGGAGAAGGGACAUGAGGAUCACCCAUGUAAGAA [EteRNA is fun!]	75.9 nM
AAGAAGUGAGGAUAUGUAUCAGUAUAGUUGCCUAUACUGAUGUAGAAGGCACAUGAGGAUCACCCAUGUCCUAA [Exclusion4-cac1]	21.7 nM
